Source: the domain aggregation screens of Martell et al. (2025)

Experiment: soluble fraction after stress (log2 fold change); higher = more stays soluble; pooled small domains, quantitative proteomics
Details: stress: 75 degC
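Also: 20 min heating vs room temperature control held 20 min.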

Row | Sequence | soluble fraction (log2)
1 | HMAVELPLETTLDIVRKYARNQEVDRRAERVEAVSAEALQTLAPRGTKLASEIVEQAKTQVLEELA | 0.476
2 | HMAVKYTKDDFLYTEKPYEAIYDYKNDPFMHNLKIEQMAQQAAEVGVKTFKGLYKNYVKMREMQRGANV | 0.0263
3 | HMAVNSALVQRNWLIGYRIAEEELQGDNRAEYGASIIKKLAKELTAEYGKGYTKTNLYHFYSFYKT | -0.0399
4 | HMAVNVNGIHLSSQQHEALVSIWRTGRMPEPHAGQKPWLWIQALRRRGLVSGNALRLTDKGRHIVQLLQ | -0.288
5 | HMAVPAALVQAWLELSRRMVAGTQDVGERFAEEARKMHYGETEDRGIRGQATLTEVRDLLDEGIEVLPLLL | -0.439
6 | HMAVPLVRGTVTSSVGTVLLLSVGERDFFLSEGEEKDGVLLQSLSEKSAVVVVSGRAYTLSL | -4.42
7 | HMAVRLADMAAEKIRKMIIENKFDAGEPLSEMRLAEMFNVSRTPIREAIAILEQEGLLTTVHGKGAFIS | -0.896
8 | HMAVSDAAEEYGKAGTPLVILAGKEYGSGSSRDWAAKGPYLQGVRAVLAESYERIHRSNLVGMGIVPLTYK | 0.18
9 | HMAVSDPTAGGIKALMYPNPAQDRLSVALDIPAGLDKQAQMTVTDMMGRVVTQQQVTLNDGFQVFEL | 0.268
10 | HMAVSSYSVKRYIRNMIQAEDPSAPFSDEALRLALLAHGIAVSRRVVTKYRMAMDIPSSSQRRKR | -1.41
11 | HMAVSTFGRITASSLNVRSGPSTDHEKVGSLAAGRVVELLEESDGWYRIENGYISTEYVTIVDPSQ | -0.715
12 | HMAVTEVKTTAVVNMRSSDSEKADKLGKAQIGDTFRVLEQRANGWTKLTDGTQEFFIKSEYLEAIA | 0.109
13 | HMAVVAPLAGSVARVLVADGDEIEAGQVLLVLEAMKMETEITAPKAGKVGAILVGKGDSVQGGQGLR | -0.18
14 | HMAYLTGFHAIEELIRAGKAKGPLLVANAGPRARTIMSLATDNKIRIDRLGEHELNRLAPGNRGIALYVE | -0.898
15 | HMDAAYVYVIGTRVNQRAGPSTSNAVMGVLSEGTRVETLRDEGQWTQIRSNFGTGWMSSSFLSSVAP | -1.28
16 | HMDADRILHKTLKPRELEIYQLIKAYLEEHSQIANAKVQEISGLSEATTRRYLNIFVEFGLLKTS | -0.214
17 | HMDADTVGQIRVVKQILDDGRLIVVDASGNPVLVRRSSALSLTAISQGDRIIVDPSVRLAIELLPNE | -0.637
18 | HMDAEELNSKAKDEFTWLEDDESETNLEYRKMVSSEDMAIVAKVAPALAAKLKYQLAHAATNMV | 0.149

Row | Sequence | soluble fraction (log2)
19 | HMDAEVEHLFRIIAELKEKNVAIIYISHKMDEIFRISDDITVYRDGEYIATDRAENLNVDKVIQLMVGREV | -0.429
20 | HMDAEWRTLTLAPEQHQQRLDRALADSLPEFSRSYVQQLIDTGMVRVNGVLAAKSAQRVKALDQVQVELR | -0.411
21 | HMDAGIVVPDTYNKPLAEAVASLEGEGFRTEKKEGYSDTVAKGNVMSQNPEAGTNAERGSTVTIVISQGPQ | 0.455
22 | HMDAINYEDFQLLIKQRGSFKVAFEDIMFSTKVAIEKKEDFYDFVTKLIDNGFNNMAYNYLEGFQD | -2.07
23 | HMDAISYTQFMEEAKQGRINKVEVQGRTLMVTPTDGKAYSLTSPGDLWMTTDLMKYGVNVYGAE | 0.0525
24 | HMDALKAVYQWVTRTMMKNQTGVMQTLPNRDLIELNTQITAQRLMQAGVDPTTLKNANQVENAVNIIESR | -0.69
25 | HMDAMGAVGIARAFISAGERGGDISDGLEHMHGKLLRLSSLMYTRSGKKMAARRHELLSSFVQALEEEIK | -0.327
26 | HMDAMQAFPNPTVDEIHFVTPTTGRVYNAHGQLVMVLKNAQLVNVRQWSAGQYVIVREDGYAVRWIK | -1.3
27 | HMDAPQRVTYLLPHSRGEVVSWLHRQGEVVAQEYEAEGVRVVVDLRYAQIRQAAKQFDVLPAEG | -1.24
28 | HMDAPRFAAGDAVRVAGLVSKPQHNGRAGSVLSYDPVSLRYIVKVDGEDEPLKLKPENVLMPA | 0.11
29 | HMDAQLRVPDLTPYNYSELKENTSLYEGFTIEVVEERSTGDYAAGTVLDQDPKADTLIQDGDSTVIKLVIA | 0.151
30 | HMDASFTYSLETHPAGVLVRVDGLEYETPFSILLPQGVHRLEVAGEERFFYLSETTHQFLEID | -2.9
31 | HMDATGDPIADRILQALQLGELTRTQVNNVFQRHLAAARISQALNFLRSLKRADMRMEETAGRSGEVWFAI | -0.454
32 | HMDAVKKKVQSTNTLLDVLKQMLPQTSSNTLRKMLTNQRITVDGETIHRAKHTVEKDQTVEIHPKP | 0.215
33 | HMDAVSYTQFMQDAKAGRIKKVIVHQSGILDVTTTEGRRFNLTSPGDLWMVGDLVKDGVDVVGAP | -0.234
34 | HMDAVTYAKGSSGETVREIQQLLLDWGYYSGEVDGIFGSRTEDAVEYFQRKNGLTVDGKVGPATLEALGIS | -0.0808
35 | HMDAYMIGHNIAKWRKEKGMTQDQLAEHLSVSGQAVSKWENGASLPDIAILPKLAEIFDVTMDQLFSR | 0.0534
